Several values for one entry are separate records, joined by “and”; a condition that tells them apart may be missing. Identical values can stand only once.

This assay has as its target recombinant ATcpnβ thermosome subunit from Acidianus tengchongensis strain S5 (Acidianus tengchongensis strain S5). The assay is described as follows: cryo-EM structure.

“recombinant ATcpnβ thermosome subunit from Acidianus tengchongensis strain S5 (natural protein)”: the subunits per ring (symmetry of top views) was 9 and 10.

(Values after article PMC3048791.)
